Assay results: the supplement of paper PMC9170038

Tested on: MS2 coat protein
Test: apparent KD of MS2 coat protein; higher = weaker reporter binding
Conditions: Eterna round: R107
Method in brief: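 For every design, apparent KD is the median of normalised binding-curve fits from its clusters. The RNA switches were transcribed on-chip from Illumina sequencing clusters and titrated with SNAP-549-labelled MS2 coat protein (twofold steps, 0.7 or 1.5 nM to 3 µM; 0.8–1.5 h to 10–20 min per step). Titrations used 100 mM Tris-HCl pH 7.5, 80 mM KCl, 4 mM MgCl2, without or with constant ligand.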

[1] = input ligand: theophylline 20 uM
[2] = input ligand: theophylline 2 mM
[3] = input ligand: tryptophan 2.4 mM

Sequence | apparent KD of MS2 coat protein (input ligand: arginine 13.2 mM) [nM] | apparent KD of MS2 coat protein [1] [nM] | apparent KD of MS2 coat protein [2] [nM] | apparent KD of MS2 coat protein [3] [nM] | apparent KD of MS2 coat protein (input ligand: none) [nM]
UAGAGCCAGUCGGCCGCCACUCUCCAUAUGUGAGCCUUUAAGUUCUACAUGAGGAUCACCCAUGUGAGGACCGGGACCGAAUCUA [theeternabot_exclusion_MS2_Trp_B_18] | 39.7 | 80.3 | 93.8 | – | –
UAUAACAUGAGGAUCACCCAUGUAAGUGAUACCAGAUAAAUAAUAGUCCCUUGGCAGCAUAUUGGGAAAGUGUAUAAUAUAUAUU [Same State - Theophylline A (Freestyle 2)] | 50.8 | 66.1 | – | 48.1 | –
UAUAUAAUAACAGAUACCAGCGUGUUAUAAAACAUGAGGAUCACCCAUGUAGUGAUCAAGCGCCCUUGGCAGCUGGUAUUAUAUA [7.A] | 123 | 140 | – | 47.6 | –
UAUAUAGAAGGAAGUCAUAUAGUUGCAGAAGGAGCGUAGGAAACUACAGGUAGGUCGCUGAGGUACAUGAGGAUCACCCAUGUAG [SSArg A #16 Slice of Pi] | 31.1 | 41 | 29.7 | 27.2 | 23.6
UAUAUAUAUAUUGAUACCAGCAGAGAAAACGUUUAUCCUAACAUGAGGAUCACCCAUGUAUGCCCUUGGCAGCGGUAUAUAUAUA [8.D] | 19.7 | 29.2 | – | 22.6 | –
UAUCCACAUGAGGAUCACCCAUGUAGGGAAGGAGCGGUGGUUUCACCAGGUAGGUCGCCUUACUGAGGAGAACCGGUGGAAUCGU [Exclusion - Arginine A (Freestyle 29)] | 23.8 | 61.7 | 105 | 42.6 | 42.1
UAUCCACAUGAGGAUCACCCAUGUUAGGAAGGAGCGGUGAAUGCACCAGGUAGGUCGCCUAGCUGAGGACUGUCGAUGGAUUCGU [Exclusion - Arginine A (Freestyle 18)] | 23.3 | 30.8 | 39.6 | 26 | 23.9
UAUCGUCAGACGGCCGCCACUAGAACAUGAGGAUCACCCAUGUACGGCCGCCCGGUAUGGGUGUCUAGGACCGGGUCUGACGAAU [(Trp1)-(Ms2)-(T)'-(M)'-(Trp2)_Design21] | 22.9 | 37.8 | 39.8 | – | –
UAUCGUCAGACGGCCGCCACUAGUACAUGAGGAUCACCCAUGUAGGUCCUAGAUUCCUCAUGAUCUAGGACCGGGUCUGACGAAU [(Trp1)-(Ms2)-(T)'-(M)'-(Trp2)_Design16] | 21.4 | 61.5 | 52.9 | – | –
UAUCUAACGAAGGAUACCAGUACAUGAGAGUACAUGAGGAUCACCCAUGUUAGAUACGGGUACCCUUGGCAGCCUCACCUACACC [theeternabot_sameState_MS2_Theo_B_11] | 40.3 | 71.6 | – | 58 | –
UAUGCACAUGAGGAUCACCCAUGUAUGGAAGGAGCGGUGAAUGAACCAGGUAGGUCGCCAUGGUGAGGAUCAUCUAUGUAAUCGU [Exclusion - Arginine A (Freestyle 7)] | 38.9 | 117 | 128 | 86.8 | 86
UCACUCCUGAUGGAUACCAGUUACUAACGCAACAUGAGGAUCACCCAUGUGAACACUCAGAACCCUUGGCAGCCAGGAGAACGAA [theeternabot_sameState_MS2_Theo_B_30] | 42.8 | 60.2 | – | 53.8 | –
UCAUAUUAGAUAGAUGUAAGGUAUCAUGAUACCAGUAGAUAAUUAUACCCUUGGCAGCAUAACAUGAGGAUCACCCAUGUACAUG [Aa] | 20.3 | 22 | – | 17.9 | –
UCAUAUUAGUGAGAUGUAAGGUAUCAUGAUACCAGUAGAUAAUUAUACCCUUGGCAGCAUAACAUGAGGAUCACCCAUGUACAUG [Ab] | 23.1 | 21.3 | – | 19.8 | –
UCCAUCGGCGGAAGCCGAUGGUUUACAGAAGGAGCGUGGAUUAACACAGGUAGGUCGCUGGACAUGAGGAUCACCCAUGUGAUAG [SSAA #6] | 40.1 | 117 | 60.4 | 55 | 60.4
UCGAAUGCGGCGGCCGCCACUCGCGGAUAACGAUAGCUUAACAUGAGGAUCACCCAUGUGUCAUGGAGGACCGGGCCCAUACCGU [azamullin] | 19.7 | 36.1 | 26.6 | – | –
UCGGGAACAUGAGGAUCACCCAUGUCAGAAGGAGCGCUGAGAGAAGCAGGUAGGUCGCUGACGCAGGAGCUCUCUUCCUGUACGC [#22 Exclusion - Arginine A] | 96.2 | 46.4 | 22.6 | 15.9 | 33.8
UCGGGUUUGCGAAGGAGCGGGUAUGUUUUCUAGUGGAUCCUAACAUGAGGAUCACCCAUGUCCCAGGUAGGUCGCGCGGGUUUGG [12.W] | 183 | 291 | 168 | 100 | 102
